Assay results reported in PMC7864056, “Functional and structural characterization of allosteric activation of phospholipase Cε by Rap1A” (The Journal of Biological Chemistry, 2020).

Experiments:
Test in all cases: cell-based or functional assay
[1] = target: R. norvegicus PLCε PH-COOH variant (residues 837-2282) (R. norvegicus, UniProt Q99P84 837-2281)
[2] = target: R. norvegicus PLCε PH-COOH K2150A (R. norvegicus, UniProt Q99P84 837-2281, K2150A)
[3] = target: R. norvegicus PLCε PH-COOH K2152A (R. norvegicus, UniProt Q99P84 837-2281, K2152A)
Chain of R. norvegicus PLCε PH-COOH K2152A (Q99P84 837-2281 K2152A): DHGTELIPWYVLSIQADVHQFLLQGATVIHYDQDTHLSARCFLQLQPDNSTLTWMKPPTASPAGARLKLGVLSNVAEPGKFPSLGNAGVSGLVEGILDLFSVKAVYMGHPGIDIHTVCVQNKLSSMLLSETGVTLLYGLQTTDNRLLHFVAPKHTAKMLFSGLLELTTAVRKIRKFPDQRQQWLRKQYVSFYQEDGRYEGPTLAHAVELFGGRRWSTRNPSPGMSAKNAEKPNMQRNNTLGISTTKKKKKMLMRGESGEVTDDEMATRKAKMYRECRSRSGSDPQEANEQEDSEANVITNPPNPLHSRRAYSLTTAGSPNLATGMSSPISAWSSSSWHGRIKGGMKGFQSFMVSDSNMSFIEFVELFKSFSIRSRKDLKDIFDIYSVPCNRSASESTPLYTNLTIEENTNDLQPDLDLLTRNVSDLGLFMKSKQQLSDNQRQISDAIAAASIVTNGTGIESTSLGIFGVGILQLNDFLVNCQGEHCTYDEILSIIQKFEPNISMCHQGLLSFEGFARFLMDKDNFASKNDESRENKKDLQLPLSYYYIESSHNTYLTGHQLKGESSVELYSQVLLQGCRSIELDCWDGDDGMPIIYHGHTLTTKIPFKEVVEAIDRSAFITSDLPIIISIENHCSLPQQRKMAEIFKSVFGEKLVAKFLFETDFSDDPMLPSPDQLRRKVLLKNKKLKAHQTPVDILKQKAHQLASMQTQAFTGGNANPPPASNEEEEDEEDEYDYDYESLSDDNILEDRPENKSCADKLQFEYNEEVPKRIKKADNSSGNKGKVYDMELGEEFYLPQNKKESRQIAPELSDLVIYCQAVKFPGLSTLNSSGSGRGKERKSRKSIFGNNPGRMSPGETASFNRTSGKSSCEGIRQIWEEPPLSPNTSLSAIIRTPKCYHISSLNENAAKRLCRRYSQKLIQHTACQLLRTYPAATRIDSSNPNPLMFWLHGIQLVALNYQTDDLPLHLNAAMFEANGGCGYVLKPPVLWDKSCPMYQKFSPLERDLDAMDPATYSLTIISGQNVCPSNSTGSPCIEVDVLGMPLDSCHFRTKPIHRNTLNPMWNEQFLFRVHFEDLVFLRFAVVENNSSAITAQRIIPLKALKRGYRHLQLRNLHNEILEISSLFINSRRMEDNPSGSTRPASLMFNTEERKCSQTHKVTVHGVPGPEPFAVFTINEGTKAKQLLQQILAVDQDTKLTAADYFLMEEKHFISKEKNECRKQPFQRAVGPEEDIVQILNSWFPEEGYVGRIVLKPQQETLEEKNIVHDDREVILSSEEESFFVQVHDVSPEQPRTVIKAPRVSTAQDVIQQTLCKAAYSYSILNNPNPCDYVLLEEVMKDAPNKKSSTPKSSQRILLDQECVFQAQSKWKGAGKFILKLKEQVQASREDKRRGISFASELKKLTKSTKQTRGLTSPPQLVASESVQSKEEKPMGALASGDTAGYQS

Chain of R. norvegicus PLCε PH-COOH variant (residues 837-2282) (Q99P84 837-2281, stated change not applied): as the sequence (Q99P84 837-2281 K2152A) above, with A1316K counted along it
Chain of R. norvegicus PLCε PH-COOH K2150A (Q99P84 837-2281 K2150A): as the sequence (Q99P84 837-2281 K2152A) above, with K1314A, A1316K counted along it

Fold activation by Rap1A^G12V of lipase activity, liposome-based [3H]PIP2 hydrolysis assay, increasing concentrations of Rap1A^G12V·GTP [1]: 3 fold
Fold activation by Rap1A^G12V of lipase activity, liposome-based [3H]PIP2 hydrolysis assay [2]: 1.8 fold
Fold activation by Rap1A^G12V of lipase activity, liposome-based [3H]PIP2 hydrolysis assay [3]: 0.9 fold
B1: constitutively active and prenylated Homo sapiens Rap1A G12V, GTP-bound (natural protein, UniProt P62834 1-184, looked up)
chain: MREYKLVVLGSVGVGKSALTVQFVQGIFVEKYDPTIEDSYRKQVEVDCQQCMLEILDTAGTEQFTAMRDLYMKNGQGFALVYSITAQSTFNDLQDLREQILRVKDTEDVPMILVGNKCDLEDERVVGKEQGQNLARQWCNCAFLESSAKSKINVNEIFYDLVRQINRKTPVEKKKPKKKSCLLL
modifications: prenylated
